Experimental data from US20150344570A1 (published 2015).

T1: FcγRIIb extracellular domain with C-terminal His tag (human, UniProt P31994 43-217)
T1 construct: extracellular domain; also called FcgRIIb; 2b; not shown: His tag attached to the C terminus
T1 sequence (looked up): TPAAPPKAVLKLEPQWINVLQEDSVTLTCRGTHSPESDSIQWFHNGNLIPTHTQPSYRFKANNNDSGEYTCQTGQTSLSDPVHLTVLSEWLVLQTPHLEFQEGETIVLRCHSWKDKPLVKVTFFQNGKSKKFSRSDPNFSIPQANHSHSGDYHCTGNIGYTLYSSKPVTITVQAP

T2: FcγRIIb extracellular domain with C-terminal His tag (human, UniProt P31994 43-217)
T2 construct: extracellular domain; Soluble receptor used as analyte in Biacore; also called FcgRIIb
T2 sequence (looked up): T1 sequence (looked up)

B1: GpH7-A5/GpH7-B3 variant A327_09D/GpL16-k0 (antibody, human IgG1, kappa)
heavy 1: not shown
heavy 2: not shown
light: DIVMTQSPLSLPVTPGEPASISCQASESLVHSNRNTYLHWYLQKPGQSPQLLIYKVSNRFSGVPDRFSGSGSGTDFTLKISRVEAEDVGVYYCSQNTHVPPTFGQGTKVEIERTVAAPSVFIFPPSDEQLKSGTASVVCLLNNFYPREAKVQWKVDNALQSGNSQESVTEQDSKDSTYSLSSTLTLSKADYEKHKVYACEVTHQGLSSPVTKSFNRGEC
notes: Heterodimerized IgG1, mutation in the GpH7-B3 chain only; also called He Ab
B2: GpH7-A5/GpH7-B3 variant L328_20W/GpL16-k0 (antibody, human IgG1, kappa)
heavy 1: not shown
heavy 2: not shown
light: B1 light
notes: as for B1
B3: GpH7-A5/GpH7-B3 variant I332_10E/GpL16-k0 (antibody, human IgG1, kappa)
heavy 1: not shown
heavy 2: not shown
light: B1 light
notes: as for B1
B4: GpH7-A5/GpH7-B3 variant I332_09D/GpL16-k0 (antibody, human IgG1, kappa)
heavy 1: not shown
heavy 2: not shown
light: B1 light
notes: as for B1
B5: GpH7-A5/GpH7-B3 variant N325_08L/GpL16-k0 (antibody, human IgG1, kappa)
heavy 1: not shown
heavy 2: not shown
light: B1 light
notes: as for B1
B6: GpH7-A5/GpH7-B3 variant N325_13S/GpL16-k0 (antibody, human IgG1, kappa)
heavy 1: not shown
heavy 2: not shown
light: B1 light
notes: as for B1
B7: GpH7-A5/GpH7-B3 variant A330_05P/GpL16-k0 (antibody, human IgG1, kappa)
heavy 1: not shown
heavy 2: not shown
light: B1 light
notes: as for B1
B8: GpH7-A5/GpH7-B3 variant L328_15Y/GpL16-k0 (antibody, human IgG1, kappa)
heavy 1: not shown
heavy 2: not shown
light: B1 light
notes: as for B1
B9: GpH7-A5/GpH7-B3 variant L328_09D/GpL16-k0 (antibody, human IgG1, kappa)
heavy 1: not shown
heavy 2: not shown
light: B1 light
notes: as for B1
B10: GpH7-A5/GpH7-B3 variant L328_10E/GpL16-k0 (antibody, human IgG1, kappa)
heavy 1: not shown
heavy 2: not shown
light: B1 light
notes: as for B1
B11: GpH7-A5/GpH7-B3 variant P331_16H/GpL16-k0 (antibody, human IgG1, kappa)
heavy 1: not shown
heavy 2: not shown
light: B1 light
notes: as for B1
B12: GpH7-A5/GpH7-B3 variant P331_03V/GpL16-k0 (antibody, human IgG1, kappa)
heavy 1: not shown
heavy 2: not shown
light: B1 light
notes: as for B1
B13: GpH7-A5/GpH7-B3 variant L328_04F/GpL16-k0 (antibody, human IgG1, kappa)
heavy 1: not shown
heavy 2: not shown
light: B1 light
notes: as for B1
B14: GpH7-A5/GpH7-B3 variant N325_04F/GpL16-k0 (antibody, human IgG1, kappa)
heavy 1: not shown
heavy 2: not shown
light: B1 light
notes: as for B1
B15: GpH7-A5/GpH7-B3 variant L328_07I/GpL16-k0 (antibody, human IgG1, kappa)
heavy 1: not shown
heavy 2: not shown
light: B1 light
notes: as for B1
B16: GpH7-A5/GpH7-B3 variant A327_10E/GpL16-k0 (antibody, human IgG1, kappa)
heavy 1: not shown
heavy 2: not shown
light: B1 light
notes: as for B1
B17: GpH7-A5/GpH7-B3 variant L328_06M/GpL16-k0 (antibody, human IgG1, kappa)
heavy 1: not shown
heavy 2: not shown
light: B1 light
notes: as for B1
B18: GpH7-A5/GpH7-B3 variant N325_20W/GpL16-k0 (antibody, human IgG1, kappa)
heavy 1: not shown
heavy 2: not shown
light: B1 light
notes: as for B1
B19: GpH7-A5/GpH7-B3 variant L328_13S/GpL16-k0 (antibody, human IgG1, kappa)
heavy 1: not shown
heavy 2: not shown
light: B1 light
notes: as for B1
B20: GpH7-A5/GpH7-B3 variant N325_06M/GpL16-k0 (antibody, human IgG1, kappa)
heavy 1: not shown
heavy 2: not shown
light: B1 light
notes: as for B1
B21: GpH7-A5/GpH7-B3 variant L328_14T/GpL16-k0 (antibody, human IgG1, kappa)
heavy 1: not shown
heavy 2: not shown
light: B1 light
notes: as for B1
B22: GpH7-A5/GpH7-B3 variant L328_02A/GpL16-k0 (antibody, human IgG1, kappa)
heavy 1: not shown
heavy 2: not shown
light: B1 light
notes: as for B1
B23: GpH7-A5/GpH7-B3 variant N325_07I/GpL16-k0 (antibody, human IgG1, kappa)
heavy 1: not shown
heavy 2: not shown
light: B1 light
notes: as for B1
B24: GpH7-A5/GpH7-B3 variant P331_15Y/GpL16-k0 (He Ab) (antibody, human IgG1, kappa)
heavy 1: not shown
heavy 2: not shown
light: B1 light
notes: Heterodimerized antibody with the alteration in one H chain only
B25: GpH7-A5/GpH7-B3 variant L328_19Q/GpL16-k0 (He Ab) (antibody, human IgG1, kappa)
heavy 1: not shown
heavy 2: not shown
light: B1 light
notes: as for B24
B26: GpH7-A5/GpH7-B3 variant L328_09D/GpL16-k0 (He Ab) (antibody, human IgG1, kappa)
heavy 1: not shown
heavy 2: not shown
light: B1 light
notes: as for B24
B27: GpH7-A5/GpH7-B3 variant P331_16H/GpL16-k0 (He Ab) (antibody, human IgG1, kappa)
heavy 1: not shown
heavy 2: not shown
light: B1 light
notes: as for B24
B28: GpH7-A5/GpH7-B3 variant L328_13S/GpL16-k0 (He Ab) (antibody, human IgG1, kappa)
heavy 1: not shown
heavy 2: not shown
light: B1 light
notes: as for B24
B29: GpH7-A5/GpH7-B3 variant P331_07I/GpL16-k0 (He Ab) (antibody, human IgG1, kappa)
heavy 1: not shown
heavy 2: not shown
light: B1 light
notes: as for B24
B30: GpH7-A5/GpH7-B3 variant P331_11K/GpL16-k0 (He Ab) (antibody, human IgG1, kappa)
heavy 1: not shown
heavy 2: not shown
light: B1 light
notes: as for B24
B31: GpH7-A5/GpH7-B3 variant P331_14T/GpL16-k0 (He Ab) (antibody, human IgG1, kappa)
heavy 1: not shown
heavy 2: not shown
light: B1 light
notes: as for B24
B32: GpH7-A5/GpH7-B3 variant P331_18N/GpL16-k0 (He Ab) (antibody, human IgG1, kappa)
heavy 1: not shown
heavy 2: not shown
light: B1 light
notes: as for B24
B33: GpH7-A5/GpH7-B3 variant L328_07I/GpL16-k0 (He Ab) (antibody, human IgG1, kappa)
heavy 1: not shown
heavy 2: not shown
light: B1 light
notes: as for B24
B34: GpH7-A5/GpH7-B3 variant L328_20W/GpL16-k0 (He Ab) (antibody, human IgG1, kappa)
heavy 1: not shown
heavy 2: not shown
light: B1 light
notes: as for B24
B35: GpH7-A5/GpH7-B3 variant P331_20W/GpL16-k0 (He Ab) (antibody, human IgG1, kappa)
heavy 1: not shown
heavy 2: not shown
light: B1 light
notes: as for B24

What follows are binders tested against T3, FcγRIa extracellular domain with C-terminal His tag (human, UniProt P12314 16-292) (assay: ratio He/Con_1a : He/Con_2b (FcγRIa over FcγRIIb), SPR (Biacore)).
T3 construct: extracellular domain; Soluble receptor used as analyte in Biacore; also called FcgRI
T3 sequence (P12314 16-292): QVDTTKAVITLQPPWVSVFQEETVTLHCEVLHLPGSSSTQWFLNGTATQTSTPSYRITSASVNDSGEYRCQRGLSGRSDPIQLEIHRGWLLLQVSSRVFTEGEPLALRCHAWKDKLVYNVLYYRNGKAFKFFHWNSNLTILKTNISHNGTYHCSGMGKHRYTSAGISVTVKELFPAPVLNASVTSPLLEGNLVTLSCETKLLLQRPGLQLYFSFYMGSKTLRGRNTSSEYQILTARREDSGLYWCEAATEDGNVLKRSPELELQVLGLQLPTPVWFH

Row | He_1a/2b (Ia/IIb) | Binder
1 | 0.6 | B1
2 | 0.44 | B2
3 | 0.68 | B3
4 | 0.64 | B4
5 | 0.5 | B5
6 | 0.55 | B6
7 | 0.74 | B7
8 | 0.53 | B8
9 | 0.51 | B9
10 | 0.59 | B10
11 | 0.8 | B11
12 | 0.78 | B12
13 | 0.45 | B13
14 | 0.65 | B14
15 | 0.62 | B15
16 | 0.74 | B16
17 | 0.7 | B17
18 | 0.56 | B18
19 | 0.66 | B19
20 | 0.45 | B20
21 | 0.71 | B21
22 | 0.68 | B22
23 | 0.55 | B23

These binders were tested against T1, FcγRIIb extracellular domain with … (assay: SPR (Biacore), antibody captured on antigen peptide chip, FcγR as analyte; relative binding).
Method: (§1) The heterodimerized antibodies He Abs in which one of the H chains was introduced with an alteration were assayed for their binding activities to each activating FcγR and inhibitory FcγR according to the method described in Example 4. […] The activating FcγRs in FIGS. 26, 27, 28, and 29 are FcγRIa, FcγRIIa (R), FcγRIIa (H), and FcγRIIIa, respectively.
(§2) Analysis of interaction between objective antibody and the FcγR was carried out using Biacore T100 (GE Healthcare). HBS-EP+ (GE Healthcare) was used as the running buffer, and the measurement temperature was set to 25° C. Chips produced by immobilizing the antigen peptide by the amine coupling method to a Series S Sencor Chip CM5 (GE Healthcare), or alternatively, chips produced by allowing preliminarily biotinylated antigen peptides to interact with and immobilize onto a Series S Sensor Chip SA (certified) (GE Healthcare) were used. Antibodies of interest were captured onto an antigen peptide-immobilized chip, and allowed to interact to each FcγR diluted with running buffer. To regenerate and repeatedly use the chip, the antibodies captured on the chip were washed off by reacting 10 mM glycine-HCl, pH 1.5.

Row | He/Con_2b | Binder
24 | 114 % of GpH7-A5/GpH7-B3/GpL16-k0 (=100) | B24
25 | 105 % of GpH7-A5/GpH7-B3/GpL16-k0 (=100) | B25
26 | 199 % of GpH7-A5/GpH7-B3/GpL16-k0 (=100) | B26
27 | 116 % of GpH7-A5/GpH7-B3/GpL16-k0 (=100) | B27
28 | 149 % of GpH7-A5/GpH7-B3/GpL16-k0 (=100) | B28
29 | 114 % of GpH7-A5/GpH7-B3/GpL16-k0 (=100) | B29
30 | 84.7 % of GpH7-A5/GpH7-B3/GpL16-k0 (=100) | B30
31 | 99.8 % of GpH7-A5/GpH7-B3/GpL16-k0 (=100) | B31
32 | 99.2 % of GpH7-A5/GpH7-B3/GpL16-k0 (=100) | B32
33 | 160 % of GpH7-A5/GpH7-B3/GpL16-k0 (=100) | B33
34 | 235 % of GpH7-A5/GpH7-B3/GpL16-k0 (=100) | B34
35 | 111 % of GpH7-A5/GpH7-B3/GpL16-k0 (=100) | B35

Each binder was assayed against T4, FcγRIIIa extracellular domain with C-terminal His tag (human, UniProt P08637 17-208) in the same assay as above.
T4 construct: extracellular domain; also called FcgRIIIa; 3a; not shown: His tag attached to the C terminus
T4 sequence (P08637 17-208): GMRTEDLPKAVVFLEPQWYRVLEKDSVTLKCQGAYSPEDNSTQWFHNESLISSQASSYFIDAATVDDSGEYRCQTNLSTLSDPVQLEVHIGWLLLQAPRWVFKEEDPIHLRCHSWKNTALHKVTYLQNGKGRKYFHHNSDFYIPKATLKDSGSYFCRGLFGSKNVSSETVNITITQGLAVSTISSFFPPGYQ
Method: as §1, §2

Row | He/Con_3a | Binder
36 | 81.9 % of GpH7-A5/GpH7-B3/GpL16-k0 (=100) | B24
37 | 81.1 % of GpH7-A5/GpH7-B3/GpL16-k0 (=100) | B25
38 | 47.8 % of GpH7-A5/GpH7-B3/GpL16-k0 (=100) | B26
39 | 80.2 % of GpH7-A5/GpH7-B3/GpL16-k0 (=100) | B27
40 | 71.7 % of GpH7-A5/GpH7-B3/GpL16-k0 (=100) | B28
41 | 66 % of GpH7-A5/GpH7-B3/GpL16-k0 (=100) | B29
42 | 67.5 % of GpH7-A5/GpH7-B3/GpL16-k0 (=100) | B30
43 | 74.1 % of GpH7-A5/GpH7-B3/GpL16-k0 (=100) | B31
44 | 73.4 % of GpH7-A5/GpH7-B3/GpL16-k0 (=100) | B32
45 | 84 % of GpH7-A5/GpH7-B3/GpL16-k0 (=100) | B33
46 | 37.4 % of GpH7-A5/GpH7-B3/GpL16-k0 (=100) | B34
47 | 78.6 % of GpH7-A5/GpH7-B3/GpL16-k0 (=100) | B35

What follows are binders tested against T3, FcγRIa extracellular domain with … (assay: SPR (Biacore), antibody captured, FcγR as analyte; binding relative to GpH7-A5/GpH7-B3/GpL16-k0 = 100).

Row | He/Con_1a [control = 100] | Binder
48 | 103 | B1
49 | 103 | B2
50 | 96.3 | B3
51 | 93.4 | B4
52 | 97.5 | B5
53 | 96.8 | B6
54 | 101 | B7
55 | 102 | B8
56 | 102 | B9
57 | 101 | B10
58 | 92.4 | B11
59 | 92 | B12
60 | 97.9 | B13
61 | 93.2 | B14
62 | 99.4 | B15
63 | 103 | B16
64 | 98.7 | B17
65 | 93.8 | B18
66 | 99 | B19
67 | 97.6 | B20
68 | 100 | B21
69 | 98.5 | B22
70 | 94.8 | B23

These binders were tested against T2, FcγRIIb extracellular domain with … in the same assay as above.

Row | He/Con_2b [control = 100] | Binder
71 | 172 | B1
72 | 235 | B2
73 | 142 | B3
74 | 147 | B4
75 | 197 | B5
76 | 177 | B6
77 | 137 | B7
78 | 193 | B8
79 | 199 | B9
80 | 172 | B10
81 | 116 | B11
82 | 119 | B12
83 | 219 | B13
84 | 143 | B14
85 | 160 | B15
86 | 140 | B16
87 | 142 | B17
88 | 169 | B18
89 | 149 | B19
90 | 217 | B20
91 | 141 | B21
92 | 144 | B22
93 | 171 | B23
